The target of assay [1] is acetylcholine receptor. The assay is described as follows: SPR, AchR immobilized on chip, peptide 10 uM.
Assay [2] addresses acetylcholine receptor. The assay is described as follows: SPR, peptide at 10 uM on immobilized AchR.

B1: 5mer-451 (peptide)
peptide: RQVLK
B1 had a Binding affinity (RU) in the assay with acetylcholine receptor [1] of 53 RU.

B2: 5mer-471 (peptide)
peptide: RGYLR
With B2, the Binding affinity (RU) with acetylcholine receptor [1] was 69 RU.

B3: 6mer-2-1092 (peptide)
peptide: RAKFRR
The molecule B3 showed a Binding affinity (RU) with acetylcholine receptor [2] of 21 RU.

B4: 5mer-159 (peptide)
peptide: RGQRR
As for B4, in the assay with acetylcholine receptor [1], the Binding affinity (RU) is 73 RU.

B5: 5mer-152 (peptide)
peptide: RRRRR
For B5, in the assay with acetylcholine receptor [1], the Binding affinity (RU) was 56 RU.

B6: 5mer-155 (peptide)
peptide: KRYLR
Molecule B6 showed a Binding affinity (RU) with acetylcholine receptor [1] of 57 RU.

B7: 5mer-151 (peptide)
peptide: RVFTK
As for B7, in the assay with acetylcholine receptor [1], the Binding affinity (RU) is 66 RU.

B8: 5mer-149 (peptide)
peptide: KQFLR
In the assay with acetylcholine receptor [1], B8 returned a Binding affinity (RU) of 80 RU.

B9: 5mer-172 (peptide)
peptide: RSRRR
Turning to B9, in the assay with acetylcholine receptor [1], the Binding affinity (RU) was 82 RU.

B10: 5mer-153 (peptide)
peptide: RSIQK
For the molecule B10, the Binding affinity (RU) with acetylcholine receptor [1] turned out to be 72 RU.

B11: 5mer-467 (peptide)
peptide: RRIYR
In turn, B11 returned a Binding affinity (RU) with acetylcholine receptor [1] of 83 RU.

B12: 5mer-150 (peptide)
peptide: RVRTR
B12: the Binding affinity (RU) with acetylcholine receptor [1] is 64 RU.

B13: 5mer-470 (peptide)
peptide: KQRSK
B13 registered a Binding affinity (RU) in the assay with acetylcholine receptor [1] of 57 RU.

B14: 6mer-2-1094 (peptide)
peptide: KAWERK
In the assay with acetylcholine receptor [2], B14 returned a Binding affinity (RU) of 43 RU.

B15: 5mer-455 (peptide)
peptide: RWLYK
B15 came in with a Binding affinity (RU) in the assay with acetylcholine receptor [1] of 61 RU.

B16: 6mer-2-1093 (peptide)
peptide: KTTDKK
In the assay with acetylcholine receptor [2], B16 yielded a Binding affinity (RU) of 43 RU.

B17: 5mer-480 (peptide)
peptide: RWYLR
B17 came in with a Binding affinity (RU) in the assay with acetylcholine receptor [1] of 75 RU.

B18: 5mer-175 (peptide)
peptide: RWQLK
For B18, the Binding affinity (RU) with acetylcholine receptor [1] was found to be 63 RU.

B19: 5mer-180 (peptide)
peptide: KQRYR
B19 gave a Binding affinity (RU) in the assay with acetylcholine receptor [1] of 74 RU.

B20: 5mer-157 (peptide)
peptide: KGRCR
In the assay with acetylcholine receptor [1], B20 displayed a Binding affinity (RU) of 78 RU.

B21: 6mer-2-1097 (peptide)
peptide: RFWEKK
The molecule B21 yielded a Binding affinity (RU) with acetylcholine receptor [2] of 23 RU.

B22: 5mer-466 (peptide)
peptide: RRVRK
Consider B22, for which the Binding affinity (RU) with acetylcholine receptor [1] was 53 RU.

B23: 5mer-177 (peptide)
peptide: RWVRK
B23 came in with a Binding affinity (RU) in the assay with acetylcholine receptor [1] of 77 RU.

B24: 5mer-179 (peptide)
peptide: RLYTK
As to B24, the Binding affinity (RU) with acetylcholine receptor [1] is 55 RU.

B25: 5mer-479 (peptide)
peptide: RQYYK
Molecule B25 showed a Binding affinity (RU) with acetylcholine receptor [1] of 70 RU.

B26: 5mer-478 (peptide)
peptide: RVQTK
In turn, B26 showed a Binding affinity (RU) with acetylcholine receptor [1] of 75 RU.

B27: 5mer-156 (peptide)
peptide: KGLRK
In the assay with acetylcholine receptor [1], B27 yielded a Binding affinity (RU) of 85 RU.

B28: 5mer-167 (peptide)
peptide: KQFRK
Turning to B28, the Binding affinity (RU) in the assay with acetylcholine receptor [1] turned out to be 64 RU.

B29: 5mer-161 (peptide)
peptide: KWVTK
Molecule B29 came in with a Binding affinity (RU) with acetylcholine receptor [1] of 52 RU.

B30: 5mer-169 (peptide)
peptide: RWYRK
B30: the Binding affinity (RU) in the assay with acetylcholine receptor [1] is 61 RU.

B31: 5mer-168 (peptide)
peptide: KLFSK
For B31, the Binding affinity (RU) with acetylcholine receptor [1] is 84 RU.

B32: 5mer-452 (peptide)
peptide: RGVSK
B32 displayed a Binding affinity (RU) with acetylcholine receptor [1] of 82 RU.

B33: 6mer-2-1095 (peptide)
peptide: KYSMRR
Molecule B33 displayed a Binding affinity (RU) with acetylcholine receptor [2] of 39 RU.

B34: 5mer-174 (peptide)
peptide: KGRQR
In turn, B34 returned a Binding affinity (RU) with acetylcholine receptor [1] of 59 RU.

B35: 5mer-456 (peptide)
peptide: RLVCK
B35 gave a Binding affinity (RU) in the assay with acetylcholine receptor [1] of 52 RU.

B36: 5mer-166 (peptide)
peptide: KSFQR
Molecule B36 gave a Binding affinity (RU) with acetylcholine receptor [1] of 55 RU.

B37: 5mer-454 (peptide)
peptide: RQVLR
In the case of B37, the Binding affinity (RU) with acetylcholine receptor [1] was 77 RU.

B38: 5mer-465 (peptide)
peptide: RWFRK
In the case of B38, in the assay with acetylcholine receptor [1], the Binding affinity (RU) turned out to be 57 RU.

B39: 5mer-453 (peptide)
peptide: KGVCR
In the assay with acetylcholine receptor [1], B39 came in with a Binding affinity (RU) of 68 RU.

B40: 5mer-170 (peptide)
peptide: RLICK
For the molecule B40, in the assay with acetylcholine receptor [1], the Binding affinity (RU) was determined as 62 RU.

B41: 5mer-173 (peptide)
peptide: RSVSR
Turning to B41, the Binding affinity (RU) in the assay with acetylcholine receptor [1] worked out at 59 RU.

B42: 5mer-461 (peptide)
peptide: KQLLK
Turning to B42, in the assay with acetylcholine receptor [1], the Binding affinity (RU) turned out to be 74 RU.

B43: 5mer-165 (peptide)
peptide: KWRSK
On to B43, for which, in the assay with acetylcholine receptor [1], the Binding affinity (RU) was 56 RU.

B44: 5mer-450 (peptide)
peptide: RVIQK
Take B44: in the assay with acetylcholine receptor [1], the Binding affinity (RU) stood at 78 RU.

B45: 5mer-464 (peptide)
peptide: RGVTR
For the molecule B45, the Binding affinity (RU) with acetylcholine receptor [1] is 57 RU.

B46: 5mer-473 (peptide)
peptide: RLVQR
For the molecule B46, the Binding affinity (RU) with acetylcholine receptor [1] was found to be 75 RU.

B47: 5mer-459 (peptide)
peptide: RSQLR
In the case of B47, the Binding affinity (RU) with acetylcholine receptor [1] is 76 RU.

B48: 5mer-476 (peptide)
peptide: RSICK
On to B48, for which the Binding affinity (RU) with acetylcholine receptor [1] was 70 RU.

B49: 5mer-460 (peptide)
peptide: RLQQR
As for B49, the Binding affinity (RU) with acetylcholine receptor [1] was determined as 74 RU.

B50: 5mer-474 (peptide)
peptide: RQFLR
On to B50, for which the Binding affinity (RU) in the assay with acetylcholine receptor [1] turned out to be 80 RU.

B51: 5mer-469 (peptide)
peptide: KSRRR
As for B51, in the assay with acetylcholine receptor [1], the Binding affinity (RU) is 69 RU.

B52: 5mer-163 (peptide)
peptide: KSLCK
For B52, the Binding affinity (RU) in the assay with acetylcholine receptor [1] was 61 RU.

B53: 6mer-2-1096 (peptide)
peptide: RANVKR
Take B53: the Binding affinity (RU) with acetylcholine receptor [2] was 39 RU.

B54: 5mer-468 (peptide)
peptide: RWQCK
With B54, the Binding affinity (RU) in the assay with acetylcholine receptor [1] came to 54 RU.

B55: 5mer-463 (peptide)
peptide: KWYTK
For the molecule B55, the Binding affinity (RU) with acetylcholine receptor [1] worked out at 52 RU.

B56: 5mer-176 (peptide)
peptide: RVLYK
With B56, the Binding affinity (RU) with acetylcholine receptor [1] stood at 52 RU.

B57: 5mer-462 (peptide)
peptide: RWQSK
Regarding B57, the Binding affinity (RU) with acetylcholine receptor [1] came out at 69 RU.

B58: 5mer-154 (peptide)
peptide: RSITR
Regarding B58, the Binding affinity (RU) with acetylcholine receptor [1] was 54 RU.

B59: 5mer-164 (peptide)
peptide: KSICK
In the assay with acetylcholine receptor [1], B59 registered a Binding affinity (RU) of 54 RU.

B60: 5mer-449 (peptide)
peptide: KGLYR
Turning to B60, the Binding affinity (RU) with acetylcholine receptor [1] worked out at 65 RU.

B61: 5mer-181 (peptide)
peptide: RSLLK
In turn, B61 returned a Binding affinity (RU) in the assay with acetylcholine receptor [1] of 72 RU.

B62: 5mer-472 (peptide)
peptide: RRYRK
In the assay with acetylcholine receptor [1], B62 gave a Binding affinity (RU) of 55 RU.

B63: 5mer-162 (peptide)
peptide: RGYQR
B63 returned a Binding affinity (RU) with acetylcholine receptor [1] of 51 RU.

B64: 5mer-158 (peptide)
peptide: RWQTK
In the assay with acetylcholine receptor [1], B64 registered a Binding affinity (RU) of 65 RU.

B65: 5mer-477 (peptide)
peptide: KGYSR
Molecule B65 returned a Binding affinity (RU) with acetylcholine receptor [1] of 58 RU.

B66: 5mer-475 (peptide)
peptide: RRFCK
Molecule B66 returned a Binding affinity (RU) in the assay with acetylcholine receptor [1] of 56 RU.

B67: 6mer-2-1098 (peptide)
peptide: KHPKRR
As for B67, the Binding affinity (RU) with acetylcholine receptor [2] amounted to 28 RU.

B68: 5mer-160 (peptide)
peptide: RSIRR
Consider B68, for which the Binding affinity (RU) with acetylcholine receptor [1] amounted to 53 RU.

B69: 5mer-458 (peptide)
peptide: RRFLK
B69: in the assay with acetylcholine receptor [1], the Binding affinity (RU) stood at 65 RU.

B70: 5mer-178 (peptide)
peptide: RRVLK
In turn, B70 showed a Binding affinity (RU) with acetylcholine receptor [1] of 87 RU.

B71: 5mer-457 (peptide)
peptide: RGQYK
Molecule B71 displayed a Binding affinity (RU) with acetylcholine receptor [1] of 59 RU.

B72: 5mer-171 (peptide)
peptide: KSIQR
Turning to B72, the Binding affinity (RU) with acetylcholine receptor [1] is 55 RU.

The record behind these values is patent publication US20250011363A1, “OPTIMIZED SHORTENED PEPTIDE THAT BINDS TO ACETYLCHOLINE RECEPTOR, AND USE THEREOF” (SKINMED CO., LTD., priority 2021, published 2025).
